US8591913B2, “Methods of decreasing adipose tissue” (Toru Miyazaki, priority 2009, dated 2013)
“Also recorded” adds a separate entry of the source.

Columns and labels:
3T3-L1 preadipocytes = assay: Differentiation of 3T3-L1 preadipocytes into mature adipocytes, oil-red-o staining; type: cell-based, mouse
Protocol: In order to examine how AIM produced by the macrophages infiltrating the adipose tissues works on surrounding adipocytes, an experiment in which AIM was loaded during a culture process of differentiating 3T3-L1 preadipocytes into the mature adipocytes was performed.
A recombinant mouse AIM protein and a recombinant human AIM protein were used as AIM. Those recombinant AIM proteins were prepared by culturing human-derived HEK293T cells transfected with a vector expressing mouse AIM or human AIM and isolating and purifying the protein from its culture supernatant. The same recombinant AIM proteins were also used as AIM in other examples shown below. AIM was loaded by adding AIM at a concentration of 5 μg/mL to the culture medium.
Differentiation induction (Induction) of the 3T3-L1 cells was initiated by first culturing the 3T3-L1 cells for 4 days (day −2 to day 2) to proliferate the cells (Cell proliferation) and subsequently culturing the cells in a culture medium containing insulin, dexamethasone (DEX), and isobutylmethylxanthine (IBMX) for 2 days (day 2 to day 4). The differentiation induction was further continued by culturing the cells in a culture medium containing insulin for 2 days (day 4 to day 6).
After the period of the differentiation induction (day 2 to day 6), the culture was continued in a culture medium not containing those differentiation-inducing factors. Then, the cells on the 10th day (day 12) after the initiation of the stimuli for differentiation induction were stained with oil-red-o, and the differentiation of the 3T3-L1 cells to mature adipocytes was observed.
In addition, using a FAS inhibitor (C75) in place of AIM, the FAS inhibitor at a concentration of 25 μM was loaded according to the schedules (d) and (f), and as was the case with the above-mentioned AIM, the cells were collected on the 2nd day (day 4: schedule (d)) and 10th day (day 12: schedule (f)) after the initiation of the differentiation induction, and the enzyme activity of FAS was measured.
FIG. 12A and FIG. 12B show the results of staining the cells with oil-red-o and analyzing the gene expression by RT-PCR on the 2nd day (day 4) after the initiation of the differentiation induction in the case of loading no AIM according to the schedule (a) (None), the case of loading AIM according to the schedule (d) (AIM (5 μg/mL)), and the case of loading the FAS inhibitor according to the schedule (d) (C75 (25 μM)), respectively.

[1] = test system: mature adipocytes (differentiated 3T3-L1 cells); assay: Induction of lipolysis in mature 3T3-L1 adipocytes (lipid droplets, glycerol and free fatty acid efflux); type: cell-based, mouse
Protocol: The effect of AIM on mature adipocytes was examined.
Then, the cells on the 10th day (day 12) after the initiation of the stimuli for differentiation induction were stained with oil-red-o. The number of cells having lipid droplets was counted. Further, the diameter of lipid droplets was measured in the cells having lipid droplets. For comparison, the number of the cells was counted and the diameter of lipid droplets was measured for the cells cultured in the above-mentioned schedules (a) and (d).
Further, the supernatant of the culture medium after the cells were cultured while loading AIM according to the schedule (e) was collected, and amounts of glycerol and free fatty acid (FFA) contained in the supernatant were measured by ELISA. For the comparison, the amounts of glycerol and free fatty acid in the culture supernatant obtained according to the schedule (a) were also measured.
In order to avoid adsorption of free fatty acid to albumin contained in the culture medium, the culture medium supplemented with 10% FBS (fetal bovine serum) was exchanged to a serum-free culture medium on the 10th day (day 12) after the initiation of the differentiation induction, further the cells were cultured in the serum-free culture medium for 6 hours, and subsequently the amounts of glycerol and free fatty acid contained in the supernatant of the serum-free culture medium were measured.
FIG. 7A and FIG. 7B illustrate the evaluation results of the number (per 10^4 μm^2) of cells having lipid droplets (Droplet (+) cells) and the relative diameter of lipid droplets (%) obtained according to the schedules (a), (d), and (e) (Exp. a, d, and e), respectively. The relative diameter of lipid droplets illustrated in FIG. 7B was calculated by defining the diameter of lipid droplets in the cells obtained according to the schedule (a) without AIM loading as 100%. FIG. 8A and FIG. 8B illustrate the concentration of glycerol (Glycerol Efflux, mM) and the concentration of free fatty acid (FFA Efflux, ×10 mM) in the culture medium obtained according to the schedules (a) and (e) (Exp. a and e), respectively.
In addition, FIG. 13A and FIG. 13B illustrate the results of measuring the glycerol concentration (glycerol efflux, mM) and the free fatty acid concentration (FFA efflux, ×10 mM) in the culture medium on the 10th day (day 12) after the initiation of the differentiation induction in the case of loading no AIM according to the schedule (a) (None), the case of loading AIM according to the schedule (f) (AIM), and the case of loading the FAS inhibitor according to the schedule (f) (C75), respectively.

CD36 [2] = target: T1, CD36 (Mus musculus, UniProt Q08857); assay: Incorporation of intravenously injected rAIM into adipose tissue of CD36-/- and CD36+/+ mice; type: in vivo; details: mouse rAIM 300 μg/mouse intravenous, 16 hours, epididymal adipose tissue
T1 construct: endogenous in cells; host or cells: differentiated 3T3-L1 adipocytes
Protocol: Mouse rAIM was intravenously injected into each of a CD36^−/− mouse which was deficient for CD36 and a wild-type CD36^+/+ mouse, and the incorporation of rAIM into the adipose tissues was analyzed. That is, an injection prepared by dissolving rAIM in PBS was intravenously injected into each of the CD36^−/− mouse and the CD36^+/+ mouse (300 μg/mouse). At 16 hours after the injection, the mice were sacrificed, and tissue sections were made from their epididymal adipose tissue. Then, the tissue sections were stained with an anti-AIM antibody.

CD36 [3] = target: T1, CD36; assay: Internalization of AIM into 3T3-L1 adipocytes with or without CD36 neutralizing antibody; type: cell-based
Protocol: Further, in order to confirm that AIM is internalized via CD36, a neutralizing antibody which inhibited the binding of a ligand to CD36 was simultaneously loaded when the 3T3-L1 adipocyte differentiated by the above-mentioned differentiation induction was loaded with AIM. Subsequently, the cultured 3T3-L1 adipocytes were collected, and stained using an anti-AIM antibody. The 3T3-L1 adipocytes loaded with AIM alone without loading the neutralizing antibody against CD36 were cultured and stained in the same manner as described above.

[4] = Stability of AIM functions (drying and redissolution, acidic condition); type: physicochemical
[5] = mouse AIM, schedule (e), compared with schedule (a)

T1 sequence (Q08857 whole entry): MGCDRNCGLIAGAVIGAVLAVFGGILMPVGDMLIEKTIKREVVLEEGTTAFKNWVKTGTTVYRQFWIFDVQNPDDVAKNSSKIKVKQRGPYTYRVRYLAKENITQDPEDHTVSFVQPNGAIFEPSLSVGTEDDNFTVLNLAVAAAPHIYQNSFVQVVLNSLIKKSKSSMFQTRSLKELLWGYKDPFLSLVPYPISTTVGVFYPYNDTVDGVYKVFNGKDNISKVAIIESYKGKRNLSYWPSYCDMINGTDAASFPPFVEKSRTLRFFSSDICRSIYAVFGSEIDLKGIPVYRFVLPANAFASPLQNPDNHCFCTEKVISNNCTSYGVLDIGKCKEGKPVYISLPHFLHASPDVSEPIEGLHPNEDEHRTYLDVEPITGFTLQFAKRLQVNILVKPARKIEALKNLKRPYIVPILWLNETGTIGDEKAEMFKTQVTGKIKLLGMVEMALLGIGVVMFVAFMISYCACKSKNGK

Molecule	differentiation of 3T3-L1 cells derived from mice / differentiation inhibitory function (3T3-L1 preadipocytes; mouse AIM and human AIM compared, in vitro)	lipolysis induction function in adipocytes derived from mice ([1]; mouse AIM and human AIM compared, same range of concentrations in vitro)	amount of rAIM internalized into the adipocytes, CD36-/- mouse compared with CD36+/+ mouse (CD36 [2])	increase of the number of dead cells due to the loading of AIM (3T3-L1 preadipocytes; 3T3-L1 cells loaded with AIM)	differentiation of the 3T3-L1 cells to the mature adipocytes (3T3-L1 preadipocytes; AIM continuously loaded day -2 to day 12, data not shown)	differentiation of the 3T3-L1 cells (3T3-L1 preadipocytes; mouse or human rAIM 5 μg/mL, schedule (b): day 2 to day 12, stained day 12)	differentiation of the 3T3-L1 cell (3T3-L1 preadipocytes; mouse or human rAIM 5 μg/mL, schedule (d): early phase of differentiation induction only (day 2 to day 4), stained day 12)	differentiation of the 3T3-L1 cells to the mature adipocytes (3T3-L1 preadipocytes; schedule (c): AIM only before differentiation induction (day -2 to day 2))	concentration of free fatty acid in the culture supernatant [1, 5]	concentration of glycerol in the culture supernatant [1, 5]	diameter of lipid droplets contained in adipocytes, relative to schedule (a) ([1]; mouse AIM, schedule (e): day 6 to day 12, schedule (a) without AIM defined as 100%)	number of the cells having lipid droplets ([1]; mouse AIM, schedule (e): day 6 to day 12 after differentiation, compared with schedule (a) without AIM)	internalization of AIM into the cells (CD36 [3]; neutralizing antibody against CD36 loaded simultaneously)	internalization of AIM into the cells (CD36 [3]; neutralizing antibody against CD36 not loaded)	functions of AIM after drying and redissolution ([4]; drying such as lyophilization, redissolution)	functions of AIM under an acidic condition ([4]; pH of about 2 to 3)
mouse AIM: protein consisting of the amino acid sequence shown in SEQ ID NO: 5; recombinant, purified from HEK293T culture supernatant (protein, mouse, recombinant, purified from HEK293T culture supernatant) MAPLFNLMLAILSIFVGSCFSESPTKVQLVGGAHRCEGRVEVEHNGQWGTVCDDGWDRRDVAVVCRELNCGAVIQTPRGASYQPPASEQRVLIQGVDCNGTEDTLAQCELNYYVFDCSHEEDAGAQCENPDSDLLFIPEDVRLVDGPGHCQGRVEVLHQSQWSTVCKAGWNLQVSKVVCRQLGCGRALLTYGSCNKNTQGKGPIWMGKMSCSGQEANLRSCLLSRLENNCTHGEDTWMECEDPFELKLVGGDTPCSGRLEVLHKGSWGSVCDDNWGEKEDQVVCKQLGCGKSLHPSPKTRKIYGPGAGRIWLDDVNCSGKEQSLEFCRHRLWGYHDCTHKEDVEVICTDFDV	inhibited; also recorded: similarly exerted	similarly exerted	remarkably smaller													
AIM: apoptosis inhibitor of macrophage, secretory protein with three SRCR domains; recombinant mouse and human AIM in Example 2, mouse AIM in Examples 3-16 (protein) ESPTKVQLVGGAHRCEGRVEVEHNGQWGTVCDDGWDRRDVAVVCRELNCGAVIQTPRGASYQPPASEQRVLIQGVDCNGTEDTLAQCELNYYVFDCSHEEDAGAQCENPDSDLLFIPEDVRLVDGPGHCQGRVEVLHQSQWSTVCKAGWNLQVSKVVCRQLGCGRALLTYGSCNKNTQGKGPIWMGKMSCSGQEANLRSCLLSRLENNCTHGEDTWMECEDPFELKLVGGDTPCSGRLEVLHKGSWGSVCDDNWGEKEDQVVCKQLGCGKSLHPSPKTRKIYGPGAGRIWLDDVNCSGKEQSLEFCRHRLWGYHDCTHKEDVEVICTDFDV				not observed	completely inhibited	almost completely inhibited	almost completely inhibited	not inhibited	remarkably increased	remarkably increased	about 25%	remarkably decreased	not observed	had been internalized into the cells	not lost	does not lose its functions
